Test results published in the supplement of paper PMC9112550, “Optimization of the antimicrobial peptide Bac7 by deep mutational scanning” (BMC Biology, 2022).

Tested on: Escherichia coli TOP10
Test: shrunken log2 fold change of peptide-encoding DNA abundance (4.5 h post-induction vs induction); higher = less antimicrobial activity (less host growth inhibition)
Settings: time post-induction: 4.5 h; library: site-saturation at positions 5, 18, 19, 20
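Also: peptides expressed intracellularly from a pBAD plasmid library in pooled LB shake-flask culture, induced with 0.3% L-arabinose, DNA abundance read by NGS, three biological replicates, DESeq2 with apeglm shrinkage.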

Sequence	shrunken log2 fold change
RRIRVRPPRLPRPRPRPGEFPRP	0.119
RRIRQRPPRLPRPRPRPGSDPRP	0.337
RRIRSRPPRLPRPRPRPISHPRP	-0.421
RRIRMRPPRLPRPRPRPYIGPRP	-0.00926
RRIRYRPPRLPRPRPRPCFPPRP	-1.06
RRIRHRPPRLPRPRPRPLECPRP	-0.257
RRIRKRPPRLPRPRPRPKSNPRP	0.112
RRIRMRPPRLPRPRPRPSNDPRP	0.184
RRIRRRPPRLPRPRPRPHACPRP	0.192
RRIRCRPPRLPRPRPRPYKQPRP	-0.211
RRIRLRPPRLPRPRPRPYRMPRP	-1.54
RRIRHRPPRLPRPRPRPVVCPRP	-0.184
RRIRMRPPRLPRPRPRPTQYPRP	0.248
RRIRDRPPRLPRPRPRPLGPPRP	0.191
RRIRKRPPRLPRPRPRPTAAPRP	0.757
RRIRIRPPRLPRPRPRPKLFPRP	-0.179
RRIRYRPPRLPRPRPRPSPEPRP	-0.458
RRIRPRPPRLPRPRPRPWEVPRP	-0.0677
RRIRNRPPRLPRPRPRPEKQPRP	0.0721
RRIRRRPPRLPRPRPRPGHRPRP	0.192
RRIRGRPPRLPRPRPRPCVCPRP	0.617
RRIRWRPPRLPRPRPRPLGKPRP	0.136
RRIRRRPPRLPRPRPRPDDSPRP	-0.0232
RRIRYRPPRLPRPRPRPEMWPRP	0.0929
RRIRSRPPRLPRPRPRPQHPPRP	-0.239

Sequence	shrunken log2 fold change
RRIRWRPPRLPRPRPRPMKNPRP	0.226
RRIRKRPPRLPRPRPRPWKTPRP	0.0649
RRIRRRPPRLPRPRPRPCADPRP	0.0637
RRIRHRPPRLPRPRPRPKRVPRP	-0.0983
RRIRTRPPRLPRPRPRPGHLPRP	-0.377
RRIRTRPPRLPRPRPRPVEIPRP	-0.2
RRIRGRPPRLPRPRPRPGQHPRP	0.0185
RRIRPRPPRLPRPRPRPHTEPRP	0.0462
RRIRCRPPRLPRPRPRPKSNPRP	-0.274
RRIRMRPPRLPRPRPRPYFQPRP	-0.759
RRIRHRPPRLPRPRPRPYKSPRP	-0.00494
RRIRGRPPRLPRPRPRPCNHPRP	-0.402
RRIRFRPPRLPRPRPRPFPNPRP	-0.0354
RRIRIRPPRLPRPRPRPLQYPRP	-0.591
RRIRPRPPRLPRPRPRPRKFPRP	-0.188
RRIRRRPPRLPRPRPRPKRMPRP	0.514
RRIRWRPPRLPRPRPRPLTNPRP	-0.114
RRIRIRPPRLPRPRPRPWQDPRP	-0.0109
RRIRKRPPRLPRPRPRPQDNPRP	-0.0637
RRIRIRPPRLPRPRPRPPKIPRP	-0.106
RRIRERPPRLPRPRPRPELKPRP	0.138
RRIRARPPRLPRPRPRPNHDPRP	-0.141
RRIRKRPPRLPRPRPRPCDMPRP	-0.00141
RRIRQRPPRLPRPRPRPHSKPRP	-0.328
RRIRARPPRLPRPRPRPVANPRP	0.238

Sequence	shrunken log2 fold change
RRIRCRPPRLPRPRPRPVHCPRP	0.0148
RRIRLRPPRLPRPRPRPYNQPRP	-0.693
RRIRHRPPRLPRPRPRPIMQPRP	-0.228
RRIRYRPPRLPRPRPRPVSWPRP	0.106
RRIRIRPPRLPRPRPRPTECPRP	0.00877
RRIRTRPPRLPRPRPRPNIKPRP	-0.828
RRIRKRPPRLPRPRPRPTPMPRP	0.555
RRIRNRPPRLPRPRPRPTDLPRP	-0.228
RRIRYRPPRLPRPRPRPGKCPRP	-0.264
RRIRQRPPRLPRPRPRPVEQPRP	0.0359
RRIRERPPRLPRPRPRPFWGPRP	0.0105
RRIRDRPPRLPRPRPRPNMDPRP	-0.491
RRIRFRPPRLPRPRPRPDERPRP	-0.0426
RRIRSRPPRLPRPRPRPFALPRP	-0.0971
RRIRRRPPRLPRPRPRPSGIPRP	-0.0479
RRIRIRPPRLPRPRPRPNSKPRP	-0.899
RRIRARPPRLPRPRPRPKSDPRP	0.239
RRIRNRPPRLPRPRPRPGWQPRP	0.116
RRIRVRPPRLPRPRPRPLGDPRP	-0.125
RRIRWRPPRLPRPRPRPGTMPRP	-0.153
RRIRPRPPRLPRPRPRPVHFPRP	-0.342
RRIRTRPPRLPRPRPRPRFRPRP	0.158
RRIRRRPPRLPRPRPRPYVKPRP	-0.166
RRIRIRPPRLPRPRPRPFSMPRP	-0.0858
RRIRRRPPRLPRPRPRPYGCPRP	-0.00402

Sequence	shrunken log2 fold change
RRIRVRPPRLPRPRPRPCTHPRP	0.0145
RRIRPRPPRLPRPRPRPPCLPRP	-0.153
RRIRPRPPRLPRPRPRPDGIPRP	0.0121
RRIRSRPPRLPRPRPRPPEAPRP	0.854
RRIRARPPRLPRPRPRPWDEPRP	0.379
RRIRNRPPRLPRPRPRPFYIPRP	-0.51
RRIRWRPPRLPRPRPRPCFMPRP	-0.0873
RRIRRRPPRLPRPRPRPFRGPRP	-0.105
RRIRQRPPRLPRPRPRPRMTPRP	0.388
RRIRPRPPRLPRPRPRPYGDPRP	-0.156
RRIRERPPRLPRPRPRPHERPRP	-0.00965
RRIRFRPPRLPRPRPRPNTNPRP	-0.622
RRIRMRPPRLPRPRPRPDQIPRP	0.0408
RRIRQRPPRLPRPRPRPGWNPRP	-0.0526
RRIRVRPPRLPRPRPRPIGHPRP	-0.426
RRIRLRPPRLPRPRPRPKWVPRP	-0.25
RRIRKRPPRLPRPRPRPCNLPRP	0.0104
RRIRRRPPRLPRPRPRPHNQPRP	-0.114
RRIRTRPPRLPRPRPRPLESPRP	-0.0663
RRIRMRPPRLPRPRPRPSHMPRP	-0.146
RRIRFRPPRLPRPRPRPFRQPRP	-0.00049
RRIRQRPPRLPRPRPRPTPCPRP	-0.138
RRIRWRPPRLPRPRPRPAFRPRP	-0.015
RRIRKRPPRLPRPRPRPAWQPRP	0.714
RRIRFRPPRLPRPRPRPIQQPRP	0.056

Sequence	shrunken log2 fold change
RRIRSRPPRLPRPRPRPVSPPRP	0.155
RRIRMRPPRLPRPRPRPPHWPRP	0.898
RRIRERPPRLPRPRPRPKKCPRP	-0.0779
RRIRSRPPRLPRPRPRPIIQPRP	-0.429
RRIRTRPPRLPRPRPRPFQYPRP	-0.0476
RRIRIRPPRLPRPRPRPVQLPRP	-0.0585
RRIRTRPPRLPRPRPRPFKKPRP	-0.102
RRIRWRPPRLPRPRPRPYYFPRP	-0.692
RRIRPRPPRLPRPRPRPEFNPRP	0.0717
RRIRWRPPRLPRPRPRPMKPPRP	-0.0125
RRIRFRPPRLPRPRPRPCKWPRP	-0.0168
RRIRTRPPRLPRPRPRPKAKPRP	-0.0262
RRIRKRPPRLPRPRPRPYNWPRP	-0.155
RRIRYRPPRLPRPRPRPQYGPRP	-0.161
RRIRSRPPRLPRPRPRPCSWPRP	-0.0623
RRIRFRPPRLPRPRPRPSSIPRP	-0.945
RRIRNRPPRLPRPRPRPVHHPRP	-2.09
RRIRTRPPRLPRPRPRPPQNPRP	0.329
RRIRDRPPRLPRPRPRPNCLPRP	0.0835
RRIRFRPPRLPRPRPRPLCTPRP	-0.137
RRIRIRPPRLPRPRPRPISPPRP	0.0361
RRIRKRPPRLPRPRPRPRMKPRP	0.346
RRIRKRPPRLPRPRPRPTVLPRP	0.0143
RRIRPRPPRLPRPRPRPHLPPRP	-0.126
RRIRCRPPRLPRPRPRPPRNPRP	1.05
